Test results from patent publication US20210205413A1 (Nektar Therapeutics, priority 2018, published 2021).
Values joined by “and” are separate entries in the source; they are usually repeats but may differ in a detail not shown here. Equal values may be shown once. “Also recorded” adds a separate entry of the source.

Tests used:
[1] = Single dose toxicokinetics in rats (SC, LS-2016-004); format: in vivo, Rat; settings: mean of three rats per time point
[2] = Phase I single ascending dose study in healthy volunteers: safety and tolerability; format: in vivo, human; settings: single SC doses
Method: A double-blind, randomized, placebo-controlled study is conducted to evaluate the safety, tolerability, pharmacokinetics, and pharmacodynamics of single ascending low sub-cutaneous doses of an RUR20kD-IL-2 composition (RUR20kD-IL-2) in healthy volunteers. […] Twelve subjects are randomized to each dose cohort, nine of whom received a single subcutaneous dose of RUR20kD-IL-2 while three received placebo. […] The drug product is supplied in single-use glass vials and stored at 2-8° C. […] Placebo is a commercially available 0.9% sodium chloride solution. A starting dose of 0.3 μg/kg is chosen using the minimally anticipated biological effect level (MABEL) approach and is supported by the no observed adverse effect level (NOAEL) in the most sensitive species from nonclinical toxicology studies.
The primary objective of the study is to evaluate the safety and tolerability of RUR20kD-IL-2 administered as a single subcutaneous dose. […] In a first phase of the study, immune markers are tested pre-dose up to 20 hours post-dose. Specifically, Tregs, CD4^+-T cells, CD8^+-T cells, natural killer (NK) cells, cytokines, soluble CD25, and RNA are tested in RUR20kD-IL-2- and placebo-receiving cohorts. In subsequent phases, the same immune markers are also tested at 4-, 5-, 6-, 7-, 8-, 10-, 12-, 15-, 18-, 20-, 25-, 30-, 40, and 50-days post-dose.

[3] = Single dose pharmacokinetics in monkeys (IV and SC); format: in vivo, Cynomolgus Monkeys
CD4 T cells, CD8 T cells = experiment: Single-dose PK/PD study in mice: CD4 and CD8 T cells in blood; format: in vivo, C57BL/6 mice; settings: single SC 0.3 mg/kg
From the text: Following administration, blood and spleen samples are collected at days 1-7 and day 10 post administration. More particularly, at each time point, blood and spleen samples are collected; samples are pooled and assessed for pharmacodynamic analysis of drug action on lymphocyte cell populations by flow cytometry (see e.g. Example 5), expressed as a fold change relative to vehicle control. In addition to changes in cell numbers, functional markers and markers of activity are quantified. Finally, plasma drug concentration is also assessed.

cGVHD model = experiment: cGVHD model, repeat administration; format: in vivo
Tregs = experiment: Single-dose study in cynomologous monkey: Tregs in blood by flow cytometry; format: in vivo
Method: A series of blood samples are taken from each animal before treatment (day −6 and −1) and at multiple intervals following treatment for assessment by flow cytometry of Treg cell numbers and activation state.
For immunophenotyping analysis, blood samples (approximately 1.0 mL) are collected from each monkey at the following time points: Pre-treatment (Day −6 and −1), Day 2, Day 3, Day 4, Day 5, Day 6, Day 7, Day 10, Day 14, and Day 21 post treatment. Venipuncture samples are collected into tubes containing the anticoagulant, K2EDTA. Tubes are placed on wet ice pending transfer. The whole blood samples are analyzed by flow cytometry using the following panels, and the samples are analyzed for the following: • T cell panel: CD45/CD3/CD4/CD8/ICOS • TB/NK panel: CD45/CD3/CD16/CD20 • pSTAT5 panel: CD3/CD4/CD8/CD25/CD127/pSTAT5 • Treg panel 1: CD3/CD4/CD8/CD25/FoxP3/Ki67 • Treg panel 2: CD3/CD4/CD8/CD25/FoxP3/Helios Computerized systems can be used for the conduct of the study, for example flow cytometry data acquisition can use BD FACSCanto II/FACSDiva LEGENDPlex Data Analysis Software, and flow cytometry data analysis can use De Novo FCS Express software.
Values from male and female are averaged, and the magnitude of change is shown relative to d-1 values, marked by the dotted line.

[4] = system: Balb/c mice (KLH DTH model); experiment: Mouse KLH delayed-type hypersensitivity (DTH) efficacy model, ear swelling; format: in vivo
Method: Mice are sensitized subcutaneously in their dorsal area with a 100 μl subcutaneous injection containing 100 μg keyhole limpit hemocyanin (KLH) in an emulsion containing Complete Freund's Adjuvant (CFA) and Incomplete Freund's Adjuvant, at a ratio of 1:1:1 respectively. Five days later, baseline ear thickness is measured prior to challenge with 10 μg of KLH intradermally in the left ear, with the right ear remaining untreated. Ear thickness measurements are measured with calipers at 24, 48, 72 and 96 hours post KLH challenge in all groups. […] A positive control consisting of cyclosporin (10 mg/kg, single dose) was administered on day 0.

[5] = cynomolgus monkeys, single IV 0.025 mg/kg, mean of male and female
[6] = cynomolgus monkeys, single SC 0.025 mg/kg, mean of male and female
[7] = SC q3d, AUC0-96h of change in ear thickness

(1,3-bis(methoxypoly(ethylene glycol)10kDcarbamoyl)-2-propanoxy)-4-butanamide)interleukin-2) [RUR20kD-IL-2]
AUCinf ([1]; single SC 0.01 mg/kg): 5230 ng·h/mL | AUClast ([1]; single SC 0.01 mg/kg): 5210 ng·h/mL | Cmax ([1]; single SC 0.01 mg/kg): 60 ng/mL | Half-life ([1]; single SC 0.01 mg/kg): 33.8 h | MRTinf ([1]; single SC 0.01 mg/kg): 63.1 h | tmax ([1]; single SC 0.01 mg/kg): 24 h | AUCinf ([1]; single SC 0.1 mg/kg): 73000 ng·h/mL | AUClast ([1]; single SC 0.1 mg/kg): 71100 ng·h/mL | Cmax ([1]; single SC 0.1 mg/kg): 640 ng/mL | Half-life ([1]; single SC 0.1 mg/kg): 58.6 h | MRTinf ([1]; single SC 0.1 mg/kg): 97.9 h | tmax ([1]; single SC 0.1 mg/kg): 24 h | AUCinf ([1]; single SC 1.5 mg/kg): 678000 ng·h/mL | AUClast ([1]; single SC 1.5 mg/kg): 672000 ng·h/mL | Cmax ([1]; single SC 1.5 mg/kg): 9300 ng/mL | Half-life ([1]; single SC 1.5 mg/kg): 47.3 h | MRTinf ([1]; single SC 1.5 mg/kg): 73.7 h | tmax ([1]; single SC 1.5 mg/kg): 48 h | adverse events [2]: primarily limited to mild or moderate (Grade 1 or 2) injection site reactions; also recorded: primarily limited to mild (grade 1) injection site reactions | anti-drug antibodies [2]: no elicitation of anti-drug antibodies; also recorded: none have been detected | dose-limiting toxicities, serious adverse events, deaths, clinically significant abnormalities [2]: No dose-limiting toxicities (DLTs), serious adverse events (SAEs), deaths, or clinically significant abnormalities; also recorded: no dose-limiting toxicities, deaths, or adverse events leading to study discontinuation; also recorded: no dose-limiting toxicities, serious adverse events, deaths, or clinically significant abnormalities in vital signs, electrocardiograms, or laboratory test values | AUCinf [3, 5]: 100000 ng·h/mL | AUClast [3, 5]: 71200 ng·h/mL | Half-life [3, 5]: 310 h | MRTinf [3, 5]: 403 h | Vss [3, 5]: 0.1 L/kg | CL ([3]; cynomolgus monkeys, single IV 0.025 mg/kg, mean of male and female, 0.025 mg/kg): 5.88 mL/day/kg and 6 mL/day/kg | AUCinf [3, 6]: 86000 ng·h/mL | AUClast [3, 6]: 65400 ng·h/mL | Cmax [3, 6]: 250 ng/mL | Half-life [3, 6]: 250 h | MRTinf [3, 6]: 360 h | Vss relative to species-specific plasma volume ([3]; monkeys): 2-4 fold | half-lives ([3]; monkeys, intravenous or subcutaneous dosing, range): 10.4 to 12.9 days | changes to CD4 T cells (CD4 T cells, CD8 T cells): modest | changes to CD8 T cells (CD4 T cells, CD8 T cells): slight decreases | Tregs and germinal center B cells in spleen (cGVHD model): increases Tregs and decreases germinal center B cells in spleen | lung dysfunction (cGVHD model): reverses lung dysfunction | day FoxP3 MFI nearly returns to pre-dose levels (Tregs; single SC 25 μg/kg): 14 to 21 days | day by which CD25 MFI returns to near pre-dose levels (Tregs; single SC 25 μg/kg): ≤ 21 days | day of maximum CD25 MFI (Tregs; single SC 25 μg/kg): 6 days | days by which Treg numbers return to near d-1 levels (Tregs; single SC 25 μg/kg): 14 to 21 days | time of maximum FoxP3 MFI (Tregs; single SC 25 μg/kg): 6 days | time of maximum Treg cell numbers (Tregs; single SC 25 μg/kg): seven days following administration | duration of sustained Treg mobilization and activity (Tregs; single administration): over 14 days | ear swelling relative to vehicle control ([4]; SC 0.003-0.3 mg/kg every three days): significant dose-dependent decreases in ear swelling | dose achieving maximal effect [4, 7]: 0.3 mg/kg | minimally effective dose [4, 7]: 0.01 mg/kg
